Assay results reported in PMC13598245, “A complex of MAST1 and 14-3-3η regulates Tau phosphorylation in the developing cortex” (Proceedings of the National Academy of Sciences of the …, 2026).

Target: the molecule itself
Assay: cross-linking + other: mass photometry; complex stabilised by glutaraldehyde cross-linking, then mass photometry (25 to 50 nM, 50 mM HEPES pH 7.4, 150 mM NaCl, 1 mM TCEP)

Protein	stoichiometry N
GST-tagged 14-3-3η (coexpressed with MAST1^DK) (natural protein, UniProt Q04917 1-246, looked up, 14-3-3 protein eta) MGDREQLLQRARLAEQAERYDDMASAMKAVTELNEPLSNEDRNLLSVAYKNVVGARRSSWRVISSIEQKTMADGNEKKLEKVKAYREKIEKELETVCNDVLSLLDKFLIKNCNDFQYESKVFYLKMKGDYYRYLAEVASGEKKNSVVEASEAAYKEAFEISKEQMQPTHPIRLGLALNFSVFYYEIQNAPEQACLLAKQAFDDAIAELDTLNEDSYKDSTLIMQLLRDNLTLWTSDQQDEEAGEGN	2
14-3-3η (purified, recombinant) (natural protein, UniProt Q04917 1-246, looked up, 14-3-3 protein eta; also called purified 14-3-3η; source: purified recombinant) MGDREQLLQRARLAEQAERYDDMASAMKAVTELNEPLSNEDRNLLSVAYKNVVGARRSSWRVISSIEQKTMADGNEKKLEKVKAYREKIEKELETVCNDVLSLLDKFLIKNCNDFQYESKVFYLKMKGDYYRYLAEVASGEKKNSVVEASEAAYKEAFEISKEQMQPTHPIRLGLALNFSVFYYEIQNAPEQACLLAKQAFDDAIAELDTLNEDSYKDSTLIMQLLRDNLTLWTSDQQDEEAGEGN	2
